For assay [1], the target named is T1, full-length mature human CD97 (residues Q21-I845) with N-terminal aspartic acid/lysine epitope tag, … (human, UniProt P48960 21-835).
T1 construct: whole, on cells; also called hCD97; hCD97-NFlag
T1 sequence (looked up): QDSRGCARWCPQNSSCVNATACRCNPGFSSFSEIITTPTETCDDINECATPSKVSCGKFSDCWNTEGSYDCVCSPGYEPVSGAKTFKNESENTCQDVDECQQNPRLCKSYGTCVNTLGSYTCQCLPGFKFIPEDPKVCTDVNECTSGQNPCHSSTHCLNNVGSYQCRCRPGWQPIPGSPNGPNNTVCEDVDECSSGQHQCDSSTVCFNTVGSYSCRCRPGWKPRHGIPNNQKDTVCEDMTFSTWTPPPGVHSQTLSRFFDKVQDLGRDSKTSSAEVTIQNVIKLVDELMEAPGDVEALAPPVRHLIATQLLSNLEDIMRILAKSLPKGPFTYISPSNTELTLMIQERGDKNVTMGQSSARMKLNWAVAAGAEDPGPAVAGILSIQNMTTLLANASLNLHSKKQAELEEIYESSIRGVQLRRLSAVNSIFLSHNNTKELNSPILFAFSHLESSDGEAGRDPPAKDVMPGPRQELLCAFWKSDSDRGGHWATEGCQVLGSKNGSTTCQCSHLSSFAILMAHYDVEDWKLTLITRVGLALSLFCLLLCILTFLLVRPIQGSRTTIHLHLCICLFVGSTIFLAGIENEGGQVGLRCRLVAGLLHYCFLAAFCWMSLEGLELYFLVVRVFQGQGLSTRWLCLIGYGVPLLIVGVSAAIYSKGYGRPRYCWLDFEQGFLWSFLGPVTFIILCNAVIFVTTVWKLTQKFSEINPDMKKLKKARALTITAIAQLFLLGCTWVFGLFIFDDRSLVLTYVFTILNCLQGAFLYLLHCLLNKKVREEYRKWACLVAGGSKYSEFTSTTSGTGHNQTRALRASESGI
As to the kind of experiment: flow cytometry on transduced HEK293T; 293 naive MFI 67.6. A general note: Flow cytometry measures light scatter and fluorescence of single cells or particles in a stream.
Protocol: (§1) The exemplary antibodies were also tested using flow cytometry to determine their ability to associate with hEMR2, cEMR2 and CD97 expressed on the surface of cells.

For assay [2], the target named is T2, full-length mature human EMR2 (residues Q24-N823) with N-terminal aspartic acid/lysine epitope tag, … (human, UniProt Q9UHX3 24-823).
T2 construct: Built from NM_013447; The IgK signal peptide is not part of the mature protein; also called hEMR2; hEMR2-NFlag
T2 sequence: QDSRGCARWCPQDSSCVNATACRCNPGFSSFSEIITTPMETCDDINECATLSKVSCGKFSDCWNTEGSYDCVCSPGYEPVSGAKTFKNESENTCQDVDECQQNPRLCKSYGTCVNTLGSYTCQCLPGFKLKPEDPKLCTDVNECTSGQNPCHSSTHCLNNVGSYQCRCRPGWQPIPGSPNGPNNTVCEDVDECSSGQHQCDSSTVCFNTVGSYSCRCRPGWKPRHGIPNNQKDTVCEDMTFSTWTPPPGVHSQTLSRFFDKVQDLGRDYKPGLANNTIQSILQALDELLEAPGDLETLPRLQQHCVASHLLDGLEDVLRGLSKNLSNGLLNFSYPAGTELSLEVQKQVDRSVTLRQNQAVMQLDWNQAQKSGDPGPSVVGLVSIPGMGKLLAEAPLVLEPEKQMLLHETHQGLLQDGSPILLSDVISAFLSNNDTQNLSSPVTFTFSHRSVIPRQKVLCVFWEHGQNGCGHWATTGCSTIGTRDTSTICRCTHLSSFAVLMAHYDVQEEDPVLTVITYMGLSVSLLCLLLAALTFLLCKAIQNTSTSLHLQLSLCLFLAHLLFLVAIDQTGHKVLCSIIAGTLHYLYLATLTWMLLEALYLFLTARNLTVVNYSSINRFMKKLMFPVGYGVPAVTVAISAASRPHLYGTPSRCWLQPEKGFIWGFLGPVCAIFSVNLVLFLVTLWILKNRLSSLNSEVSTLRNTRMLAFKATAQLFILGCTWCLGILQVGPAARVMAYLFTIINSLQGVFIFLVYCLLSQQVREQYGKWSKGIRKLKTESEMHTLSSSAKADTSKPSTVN
The assay is described as above.
Protocol: as §1

In assay [3] the target is T3, full-length mature cynomolgus EMR2 (residues Q24-N816) with N-terminal aspartic acid/lysine epitope tag, … (cynomolgus monkey (Macaca fascicularis), UniProt A0A2K5WL23 21-816).
T3 construct: whole, on cells; also called cEMR2; cEMR2-NFlag
T3 sequence: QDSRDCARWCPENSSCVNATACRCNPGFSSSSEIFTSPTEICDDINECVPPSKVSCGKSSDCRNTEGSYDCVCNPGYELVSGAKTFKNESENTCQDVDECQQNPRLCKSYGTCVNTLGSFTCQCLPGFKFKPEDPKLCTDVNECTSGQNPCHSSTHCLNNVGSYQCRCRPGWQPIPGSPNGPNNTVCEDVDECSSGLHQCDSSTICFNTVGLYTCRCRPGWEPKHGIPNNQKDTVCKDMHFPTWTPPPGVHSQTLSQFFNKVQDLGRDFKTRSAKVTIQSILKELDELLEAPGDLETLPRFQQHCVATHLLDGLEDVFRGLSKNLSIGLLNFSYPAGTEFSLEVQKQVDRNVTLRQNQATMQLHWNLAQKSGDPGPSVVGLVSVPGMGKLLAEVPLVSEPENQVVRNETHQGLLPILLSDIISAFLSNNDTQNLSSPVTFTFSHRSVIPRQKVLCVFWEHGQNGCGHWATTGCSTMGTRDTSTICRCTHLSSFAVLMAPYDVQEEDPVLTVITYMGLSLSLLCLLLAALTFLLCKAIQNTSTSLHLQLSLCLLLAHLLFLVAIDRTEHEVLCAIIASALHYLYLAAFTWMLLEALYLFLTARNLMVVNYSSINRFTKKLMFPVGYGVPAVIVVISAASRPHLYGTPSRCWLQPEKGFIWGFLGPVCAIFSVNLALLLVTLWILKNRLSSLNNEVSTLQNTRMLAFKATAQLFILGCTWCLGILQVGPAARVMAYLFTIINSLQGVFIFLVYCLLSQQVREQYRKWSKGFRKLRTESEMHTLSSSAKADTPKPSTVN
The assay is described as above.
Protocol: as §1

Assay [4] addresses T1, full-length mature human CD97 (residues …). The assay is described as follows: cell-based or functional assay.
Assay [5] has as its target T2, full-length mature human EMR2 (residues …). As to the kind of experiment: cell-based or functional assay.
For assay [6], the target named is T3, full-length mature cynomolgus EMR2 …. The assay is described as follows: cell-based or functional assay.
For assay [7], the target named is T1, full-length mature human CD97 (residues …). The assay is described as follows: flow cytometry on transduced HEK293T; 293 naive MFI 102.
Protocol: as §1
For assay [8], the target named is T2, full-length mature human EMR2 (residues …). The description is as above.
Protocol: as §1
Assay [9] concerns the target T3, full-length mature cynomolgus EMR2 …. The assay is described as above.
Protocol: as §1
Assay [10] deals with T1, full-length mature human CD97 (residues …). As to the kind of experiment: cell-based or functional assay. The source holds these as a separate data set.
In assay [11] the target is T2, full-length mature human EMR2 (residues …). The assay is described as follows: cell-based or functional assay. The source holds these as a separate data set.
For assay [12], the target named is T3, full-length mature cynomolgus EMR2 …. As to the kind of experiment: cell-based or functional assay. The source holds these as a separate data set.
Assay [13] addresses T1, full-length mature human CD97 (residues …). The assay is described as follows: flow cytometry on HEK293T cells overexpressing hCD97.
Protocol: as §1

Read-outs that look alike come from different tables or passages of the source.

The source of these data is patent US20180327506A1 (AbbVie / Abbott, published 2018).

B1: SC93.160 (antibody, IgG2a, V domains shown)
VH: QILLVQSGPELKKPGETVKISCKASGYTFTDYGIHWVKQAPGKGLKWMGWINTKTGVPTYADDFKGRFAFSLETSASTAYLQINNLKIEDTATYFCAGGNSLYYGSRPYWGQGTLVTVSA
VL: DIVMTQSPSSLTVTAGEKVTMSCKSSQSLLNSGNQKNYLTWYQQKPGQPPKLLIYWASTRESGVPDRFTGSGSGTDFTLTISSVQAEDLAVYYCQNDYSYPTFGSGTKLELK
notes: murine, IgG2a
Turning to B1, the “FC MFI” value turned out to be 61.8 in assay [1], 26000 in [2] and 62.6 in assay [3]. Further, the “% live, FAB-saporin killing assay” value in [4] came to 105%; in assay [5], 96.8%; in assay [6], 101%.

B2: SC93.266 (antibody, V domains shown)
VH: EVKLEESGGGLVQPGGSMKLSCAASGFTFSDAWMDWVRQSPEKGLEWVAEIRSKVNNHETYYAESVKGRFTISRDDSKSSVYLQMNSLRAEDTGIYYCIRNDYFDYWGQGTTLTVSS
VL: DIQMTQTTSSLSASLGDRVTISCSASQGIRNYLNWYQQKPDGTVKLLIYYTSRLHSGVPSRFSGSGSGTDYSLTISNLEPEDIATYYCQQYGKLPYTFGGGTKLEIN
notes: Murine hybridoma antibody
Turning to B2, the “FC MFI” value in assay [7] worked out at 98.3; in assay [8], 49900; in assay [9] it was 40400. In addition, the results for the “% live, FAB-saporin killing assay” value in assay [10], in assay [11] and in assay [12] were 99.2%, 13.1% and 12.7%, respectively. Also, in [13], the binding result was “no binding”.
